# Experimental data as given in patent publication US20190040102A1 (CDRD VENTURES, published 2019).
# Starred links: 1 amine or outer side, 2 acyl side, 3 side chain; linkers in the order of their positions; H or OH if unused. Positions of bridges follow the written chain, without caps; N, C: chain ends. Non-standard residues stand in square brackets, D forms with d. *: point of attachment. dPhe(4-phenylureido) = D-4-(phenylureido)Phe, O=C(Nc1ccccc1)Nc1ccc(C[C@@H](N[*:1])C(=O)[*:2])cc1; thiocarbamate = -NH-(C=O)-S- bridge between side chains (disulfide isostere); dPhe(4-CONH2) = NC(=O)c1ccc(C[C@@H](N)C(=O)O)cc1; NMePhe(4-Cl) = CN[C@@H](Cc1ccc(Cl)cc1)C(=O)O; Phe(4-Cl) = N[C@@H](Cc1ccc(Cl)cc1)C(=O)O; NMeY = CN[C@@H](Cc1ccc(O)cc1)C(=O)O; dNMeY = CN[C@H](Cc1ccc(O)cc1)C(=O)O; NMeT = CN[C@H](C(=O)O)[C@@H](C)O; NMeC = CN[C@@H](CS)C(=O)O; dNMeC = CN[C@H](CS)C(=O)O; dDap = NC[C@@H](N)C(=O)O; Dap = NC[C@H](N)C(=O)O; Hexanoyl = CCCCCC(=O)*
# B1: Compound 70: H-Cpa-cyclo[DDap-Tyr-Xaa4-Lys-Thr-Asp]-DTyr-NH2 (peptide)
# peptide: H-[Phe(4-Cl)][dDap]Y[dPhe(4-phenylureido)]KTD[dY]-NH2
# modifications: lactam 2-7; not fully specified; printed as H-Cpa-cyclo[DDap-Tyr-Xaa4-Lys-Thr-Asp]-DTyr-NH2
# B2: Compound 59: H-Cpa-[DCys-Tyr-DPhe(4-CN)-Lys-Thr-Cys]-DTyr-NH2 (peptide)
# peptide: XXYXKTCX
# HELM: PEPTIDE1{[N[C@@H](Cc1ccc(Cl)cc1)C(=O)[*:2]].[dC].Y.[N#Cc1ccc(C[C@@H](N[*:1])C(=O)[*:2])cc1].K.T.C.[dY].[am]}$PEPTIDE1,PEPTIDE1,2:R3-7:R3$$$V2.0
# SMILES: C[C@@H](O)[C@@H]1NC(=O)[C@H](CCCCN)NC(=O)[C@@H](Cc2ccc(C#N)cc2)NC(=O)[C@H](Cc2ccc(O)cc2)NC(=O)[C@H](NC(=O)[C@@H](N)Cc2ccc(Cl)cc2)CSSC[C@@H](C(=O)N[C@H](Cc2ccc(O)cc2)C(N)=O)NC1=O
# B3: Compound 55: Ac-Gly-Cpa-cyclo[D-Cys-Tyr-D-Phe(4-carbamoyl)-Lys(Nε-Me)-Thr-Cys]-D-Tyr-NH2 (peptide)
# peptide: Ac-G[Phe(4-Cl)][dC]Y[dPhe(4-CONH2)]K(Me)TC[dY]-NH2
# modifications: disulfide 3-8
# SMILES: CNCCCC[C@@H]1NC(=O)[C@@H](Cc2ccc(C(N)=O)cc2)NC(=O)[C@H](Cc2ccc(O)cc2)NC(=O)[C@H](NC(=O)[C@H](Cc2ccc(Cl)cc2)NC(=O)CNC(C)=O)CSSC[C@@H](C(=O)N[C@H](Cc2ccc(O)cc2)C(N)=O)NC(=O)[C@H]([C@@H](C)O)NC1=O
# B4: Compound 76: H-Cpa-[DCys-Tyr-DPhe(4-carbamoyl)-Lys-Thr-NMeCys]-DTyr-NH2 (peptide)
# peptide: H-[Phe(4-Cl)][dC]Y[dPhe(4-CONH2)]KT[NMeC][dY]-NH2
# modifications: disulfide 2-7
# SMILES: C[C@@H](O)[C@@H]1NC(=O)[C@H](CCCCN)NC(=O)[C@@H](Cc2ccc(C(N)=O)cc2)NC(=O)[C@H](Cc2ccc(O)cc2)NC(=O)[C@H](NC(=O)[C@@H](N)Cc2ccc(Cl)cc2)CSSC[C@@H](C(=O)N[C@H](Cc2ccc(O)cc2)C(N)=O)N(C)C1=O
# B5: Compound 73: H-Cpa-[DCys-Tyr-DPhe(4-carbamoyl)-Lys-NMeThr-Cys]-DTyr-NH2 (peptide)
# peptide: XXYXKXCX
# HELM: PEPTIDE1{[N[C@@H](Cc1ccc(Cl)cc1)C(=O)[*:2]].[dC].Y.[NC(=O)c1ccc(C[C@@H](N[*:1])C(=O)[*:2])cc1].K.[meT].C.[dY].[am]}$PEPTIDE1,PEPTIDE1,2:R3-7:R3$$$V2.0
# SMILES: C[C@@H](O)[C@H]1C(=O)N[C@H](C(=O)N[C@H](Cc2ccc(O)cc2)C(N)=O)CSSC[C@@H](NC(=O)[C@@H](N)Cc2ccc(Cl)cc2)C(=O)N[C@@H](Cc2ccc(O)cc2)C(=O)N[C@H](Cc2ccc(C(N)=O)cc2)C(=O)N[C@@H](CCCCN)C(=O)N1C
# B6: Compound 72: H-Cpa-cyclo[DCys-Tyr-D-(4-carbamoyl)Phe-(N-alpha-Me)Lys-Thr-Cys]-DTyr-NH2 (peptide)
# peptide: XXYXXTCX
# HELM: PEPTIDE1{[N[C@@H](Cc1ccc(Cl)cc1)C(=O)[*:2]].[dC].Y.[NC(=O)c1ccc(C[C@@H](N[*:1])C(=O)[*:2])cc1].[meK].T.C.[dY].[am]}$PEPTIDE1,PEPTIDE1,2:R3-7:R3$$$V2.0
# SMILES: C[C@@H](O)[C@@H]1NC(=O)[C@H](CCCCN)N(C)C(=O)[C@@H](Cc2ccc(C(N)=O)cc2)NC(=O)[C@H](Cc2ccc(O)cc2)NC(=O)[C@H](NC(=O)[C@@H](N)Cc2ccc(Cl)cc2)CSSC[C@@H](C(=O)N[C@H](Cc2ccc(O)cc2)C(N)=O)NC1=O
# B7: Compound 25: H-Cpa-cyclo[D-Cys-Tyr-D-Phe(4-phenylureido)-Lys(Nε-Me)-Thr-Cys]-D-Tyr-NH2 (peptide)
# peptide: H-[Phe(4-Cl)][dC]Y[dPhe(4-phenylureido)]K(Me)TC[dY]-NH2
# modifications: disulfide 2-7
# SMILES: CNCCCC[C@@H]1NC(=O)[C@@H](Cc2ccc(NC(=O)Nc3ccccc3)cc2)NC(=O)[C@H](Cc2ccc(O)cc2)NC(=O)[C@H](NC(=O)[C@@H](N)Cc2ccc(Cl)cc2)CSSC[C@@H](C(=O)N[C@H](Cc2ccc(O)cc2)C(N)=O)NC(=O)[C@H]([C@@H](C)O)NC1=O
# B8: Compound 56: CH3(CH2)4(CO)-Cpa-cyclo[D-Cys-Tyr-D-Phe(4-carbamoyl)-Lys(Nε-Me)-Thr-Cys]-D-Tyr-NH2 (peptide)
# peptide: Hexanoyl-[Phe(4-Cl)][dC]Y[dPhe(4-CONH2)]K(Me)TC[dY]-NH2
# modifications: disulfide 2-7
# SMILES: CCCCCC(=O)N[C@@H](Cc1ccc(Cl)cc1)C(=O)N[C@@H]1CSSC[C@@H](C(=O)N[C@H](Cc2ccc(O)cc2)C(N)=O)NC(=O)[C@H]([C@@H](C)O)NC(=O)[C@H](CCCCNC)NC(=O)[C@@H](Cc2ccc(C(N)=O)cc2)NC(=O)[C@H](Cc2ccc(O)cc2)NC1=O
# B9: Compound 71: H-Cpa-cyclo[DDap-Tyr-DPhe(4-CONH2)-Lys(Me)-Thr-Asp]-DTyr-NH2 (peptide)
# peptide: H-[Phe(4-Cl)][dDap]Y[dPhe(4-CONH2)]K(Me)TD[dY]-NH2
# modifications: lactam 2-7; not fully specified; printed as H-Cpa-cyclo[DDap-Tyr-DPhe(4-CONH2)-Lys(Me)-Thr-Asp]-DTyr-NH2
# B10: Compound 74: H-Cpa-[DCys-NMeTyr-DPhe(4-carbamoyl)-Lys-Thr-Cys]-DTyr-NH2 (peptide)
# peptide: XXXXKTCX
# HELM: PEPTIDE1{[N[C@@H](Cc1ccc(Cl)cc1)C(=O)[*:2]].[dC].[meY].[NC(=O)c1ccc(C[C@@H](N[*:1])C(=O)[*:2])cc1].K.T.C.[dY].[am]}$PEPTIDE1,PEPTIDE1,2:R3-7:R3$$$V2.0
# SMILES: C[C@@H](O)[C@@H]1NC(=O)[C@H](CCCCN)NC(=O)[C@@H](Cc2ccc(C(N)=O)cc2)NC(=O)[C@H](Cc2ccc(O)cc2)N(C)C(=O)[C@H](NC(=O)[C@@H](N)Cc2ccc(Cl)cc2)CSSC[C@@H](C(=O)N[C@H](Cc2ccc(O)cc2)C(N)=O)NC1=O
# B11: Compound 77: H-(N-Me)Cpa-cyclo[D-Cys-Tyr-D-Phe(4-carbamoyl)-Lys-Thr-Cys]-D-Tyr-NH2 (peptide)
# peptide: XXYXKTCX
# HELM: PEPTIDE1{[CN[C@@H](Cc1ccc(Cl)cc1)C(=O)[*:2]].[dC].Y.[NC(=O)c1ccc(C[C@@H](N[*:1])C(=O)[*:2])cc1].K.T.C.[dY].[am]}$PEPTIDE1,PEPTIDE1,2:R3-7:R3$$$V2.0
# SMILES: CN[C@@H](Cc1ccc(Cl)cc1)C(=O)N[C@@H]1CSSC[C@@H](C(=O)N[C@H](Cc2ccc(O)cc2)C(N)=O)NC(=O)[C@H]([C@@H](C)O)NC(=O)[C@H](CCCCN)NC(=O)[C@@H](Cc2ccc(C(N)=O)cc2)NC(=O)[C@H](Cc2ccc(O)cc2)NC1=O
# B12: Compound 78: H-Cpa-[NMeDCys-Tyr-DPhe(4-carbamoyl)-Lys-Thr-Cys]-DTyr-NH2 (peptide)
# peptide: H-[Phe(4-Cl)][dNMeC]Y[dPhe(4-CONH2)]KTC[dY]-NH2
# modifications: disulfide 2-7
# SMILES: C[C@@H](O)[C@@H]1NC(=O)[C@H](CCCCN)NC(=O)[C@@H](Cc2ccc(C(N)=O)cc2)NC(=O)[C@H](Cc2ccc(O)cc2)NC(=O)[C@H](N(C)C(=O)[C@@H](N)Cc2ccc(Cl)cc2)CSSC[C@@H](C(=O)N[C@H](Cc2ccc(O)cc2)C(N)=O)NC1=O
# B13: Compound 80: H-NMeCpa-[DCys-NMeTyr-DPhe(4-carbamoyl)-Lys-NMeThr-Cys]-NMeDTyr-NH2 (peptide)
# peptide: H-[NMePhe(4-Cl)][dC][NMeY][dPhe(4-CONH2)]K[NMeT]C[dNMeY]-NH2
# modifications: disulfide 2-7
# SMILES: CN[C@@H](Cc1ccc(Cl)cc1)C(=O)N[C@@H]1CSSC[C@@H](C(=O)N(C)[C@H](Cc2ccc(O)cc2)C(N)=O)NC(=O)[C@H]([C@@H](C)O)N(C)C(=O)[C@H](CCCCN)NC(=O)[C@@H](Cc2ccc(C(N)=O)cc2)NC(=O)[C@H](Cc2ccc(O)cc2)N(C)C1=O
# B14: Compound 79: H-Cpa-[DCys-Tyr-DPhe(4-carbamoyl)-Lys-Thr-Cys]-NMeDTyr-NH2 (peptide)
# peptide: H-[Phe(4-Cl)][dC]Y[dPhe(4-CONH2)]KTC[dNMeY]-NH2
# modifications: disulfide 2-7
# SMILES: C[C@@H](O)[C@@H]1NC(=O)[C@H](CCCCN)NC(=O)[C@@H](Cc2ccc(C(N)=O)cc2)NC(=O)[C@H](Cc2ccc(O)cc2)NC(=O)[C@H](NC(=O)[C@@H](N)Cc2ccc(Cl)cc2)CSSC[C@@H](C(=O)N(C)[C@H](Cc2ccc(O)cc2)C(N)=O)NC1=O
# B15: Compound 69: H-Cpa-cyclo[DDap-Tyr-DPhe(4-CONH2)-Lys-Thr-Asp]-DTyr-NH2 (peptide)
# peptide: H-[Phe(4-Cl)][dDap]Y[dPhe(4-CONH2)]KTD[dY]-NH2
# modifications: lactam 2-7; not fully specified; printed as H-Cpa-cyclo[DDap-Tyr-DPhe(4-CONH2)-Lys-Thr-Asp]-DTyr-NH2
# B16: Compound 75: H-Cpa-[DCys-NMeTyr-DPhe(4-carbamoyl)-Lys-NMeThr-Cys]-DTyr-NH2 (peptide)
# peptide: XXXXKXCX
# HELM: PEPTIDE1{[N[C@@H](Cc1ccc(Cl)cc1)C(=O)[*:2]].[dC].[meY].[NC(=O)c1ccc(C[C@@H](N[*:1])C(=O)[*:2])cc1].K.[meT].C.[dY].[am]}$PEPTIDE1,PEPTIDE1,2:R3-7:R3$$$V2.0
# SMILES: C[C@@H](O)[C@H]1C(=O)N[C@H](C(=O)N[C@H](Cc2ccc(O)cc2)C(N)=O)CSSC[C@@H](NC(=O)[C@@H](N)Cc2ccc(Cl)cc2)C(=O)N(C)[C@@H](Cc2ccc(O)cc2)C(=O)N[C@H](Cc2ccc(C(N)=O)cc2)C(=O)N[C@@H](CCCCN)C(=O)N1C
# Biological target: somatostatin receptor type 2 (SSTR2) (UniProt P30874 1-369)
# Assay: cell-based or functional assay
# Chain of somatostatin receptor type 2 (SSTR2) (P30874 whole entry): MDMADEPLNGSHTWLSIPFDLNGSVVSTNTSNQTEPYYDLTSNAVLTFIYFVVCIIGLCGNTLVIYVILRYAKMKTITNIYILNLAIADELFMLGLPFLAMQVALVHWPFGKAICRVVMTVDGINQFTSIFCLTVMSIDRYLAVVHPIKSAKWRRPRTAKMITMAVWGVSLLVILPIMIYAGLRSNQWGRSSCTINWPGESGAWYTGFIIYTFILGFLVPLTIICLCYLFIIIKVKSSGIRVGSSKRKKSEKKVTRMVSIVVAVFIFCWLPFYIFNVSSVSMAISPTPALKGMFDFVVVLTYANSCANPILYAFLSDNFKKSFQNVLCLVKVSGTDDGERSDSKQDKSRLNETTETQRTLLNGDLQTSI
row,Binder,"IC50 (PathHunter β-Arrestin, antagonist mode) [nM]"
1,B1,> 1000
2,B2,39.1
3,B3,3.35
4,B4,400
5,B5,547
6,B6,5.77
7,B7,2.32
8,{2‑furoyl}-[Phe(4-Cl)][dC]Y[dPhe(4-CONH2)]K(Me)TC[dY]-NH2 (disulfide 2-7) [Compound 57: (Furan-2-carboxy)-Cpa-cyclo[D-Cys-Tyr-D-Phe(4-carbamoyl)-Lys(Nε-Me)-Thr-Cys]-D-Tyr-NH2],3.65
9,B8,1.6
10,H-[Phe(4-Cl)][dDap]Y[dPhe(4-CONH2)]KTC[dY]-NH2 (bridge 2-7 via thiocarbamate) [Compound 60: H-Cpa-cyclo[DDap-Tyr-DPhe(4-CONH2)-Lys-Thr-Cys]-DTyr-NH2],> 1000
11,B9,13.3
12,{CH3O2C(CH2)2(CO)}-[Phe(4-Cl)][dC]Y[dPhe(4-CONH2)]K(Me)TC[dY]-NH2 (disulfide 2-7) [Compound 58: CH3O2C(CH2)2(CO)-Cpa-cyclo[D-Cys-Tyr-D-Phe(4-carbamoyl)-Lys(Nε-Me)-Thr-Cys]-D-Tyr-NH2],2.36
13,B10,159
14,B11,2.25
15,B12,6.79
16,B13,> 1000
17,B14,28.7
18,B15,> 1000
19,B16,> 1000
20,H-[Phe(4-Cl)][dC]Y[dPhe(4-CONH2)]K(Me)T[Dap][dY]-NH2 (bridge 2-7 via thiocarbamate) [Compound 63: H-Cpa-cyclo[DCys-Tyr-DPhe(4-CONH2)-Lys(Me)-Thr-Dap]-DTyr-NH2],> 1000
21,H-[Phe(4-Cl)][dC]Y[dPhe(4-CONH2)]KT[Dap][dY]-NH2 (bridge 2-7 via thiocarbamate) [Compound 62: H-Cpa-cyclo[DCys-Tyr-DPhe(4-CONH2)-Lys-Thr-Dap]-DTyr-NH2],> 1000
22,H-[Phe(4-Cl)][Dap]Y[dPhe(4-CONH2)]KTC[dY]-NH2 (bridge 2-7 via thiocarbamate) [Compound 61: H-Cpa-cyclo[Dap-Tyr-DPhe(4-CONH2)-Lys-Thr-Cys]-DTyr-NH2],> 1000
